According to patent publication US20260008815A1, “CYCLIC PEPTIDE OR SALT THEREOF, AND USES THEREOF” (FUJIFILM Corporation, priority 2023, published 2026):
Numbered stars: 1 amine (or outer) side, 2 acyl side, 3 side chain; on linkers, the order of the positions; unused ones are H or OH. Bridge positions count the residues as written; N and C are the ends. Ends that are not written are not given here. acetyl = acetyl (haloacetyl before ring closure) on the side-chain amine, O=C(C[*:1])[*:2]; COCH2 = acetyl group that carries the bridge

The substances below were run against T1, Recombinant Human FGFR2 alpha (IIIc) Fc Chimera Protein (Homo sapiens, UniProt P21802) (assay: ELISA binding affinity of enzymatically synthesized peptide to FGFR). Settings: ELISA luminescence signal at 10 nmol/L peptide, SEQ ID NO: 47 at 10 nmol/L standardized to 1; enzyme synthesis product.
T1 construct: Fc (chimera); purchased R&D systems 712-FR-050
T1 sequence (P21802 with tags, fused parts or gaps limits assumed): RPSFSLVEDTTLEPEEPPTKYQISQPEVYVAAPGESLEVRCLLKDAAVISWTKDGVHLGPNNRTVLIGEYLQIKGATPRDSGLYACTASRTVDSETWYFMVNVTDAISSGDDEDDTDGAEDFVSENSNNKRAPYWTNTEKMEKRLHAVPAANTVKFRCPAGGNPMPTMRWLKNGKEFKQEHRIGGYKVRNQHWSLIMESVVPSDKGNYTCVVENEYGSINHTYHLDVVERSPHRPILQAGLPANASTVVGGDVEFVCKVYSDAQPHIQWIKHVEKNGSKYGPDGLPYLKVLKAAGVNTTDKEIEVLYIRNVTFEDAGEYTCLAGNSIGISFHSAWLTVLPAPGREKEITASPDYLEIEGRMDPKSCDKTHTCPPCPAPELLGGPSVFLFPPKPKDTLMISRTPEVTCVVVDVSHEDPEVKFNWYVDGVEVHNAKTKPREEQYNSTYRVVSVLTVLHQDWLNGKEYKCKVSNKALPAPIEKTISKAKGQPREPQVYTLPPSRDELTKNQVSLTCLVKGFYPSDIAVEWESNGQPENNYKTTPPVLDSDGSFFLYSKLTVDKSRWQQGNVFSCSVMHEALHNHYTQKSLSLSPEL
Protocol: The binding affinity of the peptide to FGFR was evaluated using an ELISA method.
The binding affinity of the enzymatically synthesized peptide to FGFR was measured by evaluating the amount of the peptide bound to FGFR by ELISA.
First, 5 ng of Recombinant Human FGFR2 alpha (IIIc) Fc Chimera Protein (R&D systems, 712-FR-050) was immobilized in each well of a 96-well plate, and blocked with Pierce Protein-Free (PBS) Blocking Buffer (Thermo, 37572), and a peptide diluted with Can Get Signal Immunoreaction Enhancer Solution I (TOYOBO, NKB-101) was then added and reacted at room temperature for 3 hours. After washing with 0.05% Tween 20-containing phosphate buffered saline (PBS), an anti-Myc antibody (Cell Signaling, 14038S) diluted with Can Get Signal Immunoreaction Enhancer Solution II (TOYOBO, NKB-101) was added and reacted at room temperature for 2 hours. After washing with 0.05% Tween 20-containing PBS, SuperSignal ELISA Femto Substrate (Thermo, 37075) was added, and the luminescence amount was measured. The dose-response relationship was calculated from using the difference between the luminescence amount in the well in which FGFR was immobilized and the luminescence amount in the well in which FGFR was not immobilized, and the concentration of the peptide at the time of reaction, and the binding affinity to FGFR was evaluated according to the following evaluation criteria. The evaluation result preferably satisfies the evaluation criteria A, B, or C.
In a case where a value of a luminescence signal emitted by the cyclic peptide set forth in SEQ ID NO: 47 at a reaction concentration of 10 nmol/L is standardized to 1, evaluation criteria of the luminescence signal value emitted by the cyclic peptide at a reaction concentration of 10 nmol/L is as follows. • A: 0.7 or more • B: 0.5 or more and less than 0.7 • C: 0.1 or more and less than 0.5 • D: less than 0.1.

Row | Substance | Evaluation result of binding affinity to FGFR
1 | 42 (QCYFLSQYILERYKVHK(COCH2)L; thioether 2-17 via acetyl) [compound 42] | A (0.7 or more)
2 | 277 (YCEENYLDPEQYQYFGYFK(COCH2)Y; thioether 2-19) [compound 277] | C (0.1 or more and less than 0.5)
3 | 102 (QCPQNFINPVQVRYFQHYK(COCH2)N; thioether 2-19 (inferred)) [compound 102] | C (0.1 or more and less than 0.5)
4 | 180 (YCEHNYLDPEQYQYFIYFK(COCH2)Y; thioether 2-19 (inferred)) [compound 180] | A (0.7 or more)
5 | 239 (YCEENYLDPIQYQYFIYFK(COCH2)Y; thioether 2-19 (inferred)) [compound 239] | A (0.7 or more)
6 | 211 (YCEENYLFPEQYQYFIYFK(COCH2)Y; thioether 2-19 (inferred)) [compound 211] | A (0.7 or more)
7 | 166 (YCEGNYLDPEQYQYFIYFK(COCH2)Y; thioether 2-19 (inferred)) [compound 166] | A (0.7 or more)
8 | 103 (QCPQNFINPVQFRYFQHYK(COCH2)N; thioether 2-19 (inferred)) [compound 103] | B (0.5 or more and less than 0.7)
9 | 108 (LCRNYINPQQWRYFALYK(COCH2)Y; thioether 2-18 (inferred)) [compound 108] | A (0.7 or more)
10 | 35 (YRSRKYSSWYVALKR; also: cyclic peptide, ring not given here) [compound 35] | D (less than 0.1)
11 | 96 (QCPQYFINPVQWRYFQHYK(COCH2)N; thioether 2-19) [compound 96] | C (0.1 or more and less than 0.5)
12 | 98 (QCPQTFINPVQWRYFQHYK(COCH2)N; thioether 2-19) [compound 98] | C (0.1 or more and less than 0.5)
13 | 181 (YCEEGYLDPEQYQYFIYFK(COCH2)Y; thioether 2-19 (inferred)) [compound 181] | B (0.5 or more and less than 0.7)
14 | 164 (YCRENYLDPEQYQYFIYFK(COCH2)Y; thioether 2-19 (inferred)) [compound 164] | A (0.7 or more)
15 | 165 (YCHENYLDPEQYQYFIYFK(COCH2)Y; thioether 2-19 (inferred)) [compound 165] | A (0.7 or more)
16 | 59 (KCPQNFIAPVQWRYFQHYK(COCH2)N; thioether 2-19 (inferred)) [compound 59] | B (0.5 or more and less than 0.7)
17 | 254 (YCEENYLDPEQFQYFIYFK(COCH2)Y; thioether 2-19 (inferred)) [compound 254] | A (0.7 or more)
18 | 176 (YCESNYLDPEQYQYFIYFK(COCH2)Y; thioether 2-19 (inferred)) [compound 176] | A (0.7 or more)

Row | Substance | Evaluation result of binding affinity to FGFR
19 | 270 (YCEENYLDPEQYHYFIYFK(COCH2)Y; thioether 2-19) [compound 270] | A (0.7 or more)
20 | 109 (DCFINELQYFYIQQYK(COCH2)K; thioether 2-16 (inferred)) [compound 109] | B (0.5 or more and less than 0.7)
21 | 118 (LCPVPQQTDYLRWYQIIHK(COCH2)Q; thioether 2-19 (inferred)) [compound 118] | C (0.1 or more and less than 0.5)
22 | 48 (GCYWNEVQYYYLQQYKQ; Description of Artificial Sequence: Cyclic peptide) [compound 48] | A (0.7 or more)
23 | 124 (DCRDLQLFYIYQYLDALK(COCH2)K; thioether 2-18 (inferred)) [compound 124] | C (0.1 or more and less than 0.5)
24 | 44 (ACEYNYWNQVQFTFLIAFK(COCH2)R; thioether 2-19 via acetyl) [compound 44] | B (0.5 or more and less than 0.7)
25 | 218 (YCEENYLEPEQYQYFIYFK(COCH2)Y; thioether 2-19 (inferred)) [compound 218] | A (0.7 or more)
26 | 73 (LCPQNFINPVQWRYFQHYK(COCH2)N; thioether 2-19 (inferred)) [compound 73] | A (0.7 or more)
27 | 231 (YCEENYLDTEQYQYFIYFK(COCH2)Y; thioether 2-19 (inferred)) [compound 231] | A (0.7 or more)
28 | 248 (YCEENYLDPDQYQYFIYFK(COCH2)Y; thioether 2-19 (inferred)) [compound 248] | A (0.7 or more)
29 | 161 (YCSENYLDPEQYQYFIYFK(COCH2)Y; thioether 2-19 (inferred)) [compound 161] | A (0.7 or more)
30 | 49 (SCQGNWISNTQFRYFIAYK(COCH2)T; thioether 2-19; not fully specified (residue 1); printed as s-(C)-QGNWISNTQFRYFIAY-(K(acetyl))-T) [compound 49] | A (0.7 or more)
31 | 196 (YCEENYVDPEQYQYFIYFK(COCH2)Y; thioether 2-19 (inferred)) [compound 196] | A (0.7 or more)
32 | 246 (YCEENYLDPSQYQYFIYFK(COCH2)Y; thioether 2-19 (inferred)) [compound 246] | A (0.7 or more)
33 | 283 (YCEENYLDPEQYQYFNYFK(COCH2)Y; thioether 2-19) [compound 283] | A (0.7 or more)
34 | 55 (KCPANFINPVQWRYFQHYK(COCH2)N; thioether 2-19 (inferred)) [compound 55] | A (0.7 or more)
35 | 251 (YCEENYLDPEHYQYFIYFK(COCH2)Y; thioether 2-19 (inferred)) [compound 251] | C (0.1 or more and less than 0.5)

Second part, the substance after the results:

Row | Evaluation result of binding affinity to FGFR | Substance
36 | C (0.1 or more and less than 0.5) | 380 (YCPPQLVYLYQYLYK(COCH2)L; thioether 2-15 (inferred)) [compound 380]
37 | A (0.7 or more) | 303 (YCEENYLDPEQYQYFIEFK(COCH2)Y; thioether 2-19 (inferred)) [compound 303]
38 | A (0.7 or more) | 293 (YCEENYLDPEQYQYFILFK(COCH2)Y; thioether 2-19) [compound 293]
39 | C (0.1 or more and less than 0.5) | 422 (YCTQEQAFRQLAYYQIFRRSK(COCH2)S; thioether 2-21 via acetyl) [compound 422]
40 | A (0.7 or more) | 318 (YCEENYLDPEQYQYFIYFK(COCH2)D; thioether 2-19 (inferred)) [compound 318]
41 | A (0.7 or more) | 351 (YCEENYMDPEQYQYFIYFK(COCH2)Y; thioether 2-19) [compound 351]
42 | A (0.7 or more) | 335 (KCEENYLDPEQYQYFIYFK(COCH2)Y; thioether 2-19 (inferred)) [compound 335]
43 | A (0.7 or more) | 430 (CHENYLDPEQYQYFHYFK(COCH2)Y; thioether 1-18 via acetyl) [compound 430]
44 | C (0.1 or more and less than 0.5) | 381 (VCQEYYLYQYVYELK(COCH2)Y; thioether 2-15 (inferred)) [compound 381]
45 | B (0.5 or more and less than 0.7) | 394 (YCHENYLDPEQYQYFHYFK(COCH2)R; thioether 2-19 (inferred)) [compound 394]
46 | C (0.1 or more and less than 0.5) | 401 (QCQFLNYVNHVQWHYFWVFK(COCH2)S; thioether 2-20 (inferred)) [compound 401]
47 | A (0.7 or more) | 411 (TCVDKDNWYNHVQWQYFFLYK(COCH2)Q; thioether 2-21 (inferred)) [compound 411]
48 | B (0.5 or more and less than 0.7) | 398 (YCHENYLDPEQHQYFIYFK(COCH2)R; thioether 2-19 (inferred)) [compound 398]
49 | C (0.1 or more and less than 0.5) | 424 (VCTQPQQDFELIYQYLYQLAK(COCH2)Q; thioether 2-21 via acetyl) [compound 424]
50 | C (0.1 or more and less than 0.5) | 372 (QCEQLKYLYQYVLK(COCH2)L; thioether 2-14) [compound 372]
51 | A (0.7 or more) | 300 (YCEENYLDPEQYQYFISFK(COCH2)Y; thioether 2-19 (inferred)) [compound 300]
